Test system: Escherichia coli TOP10
Test: shrunken log2 fold change of peptide-encoding DNA abundance (4.5 h post-induction vs induction); higher = less antimicrobial activity (less host growth inhibition)
Details: time post-induction: 4.5 h; library: site-saturation at positions 5, 18, 19, 20
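Further: peptides expressed intracellularly from a pBAD plasmid library in pooled LB shake-flask culture, induced with 0.3% L-arabinose, DNA abundance read by NGS, three biological replicates, DESeq2 with apeglm shrinkage.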

Sequence	shrunken log2 fold change
RRIRYRPPRLPRPRPRPEPRPRP	0.408
RRIRKRPPRLPRPRPRPDMAPRP	0.0491
RRIRNRPPRLPRPRPRPYWLPRP	-0.55
RRIRCRPPRLPRPRPRPVHEPRP	-0.073
RRIRNRPPRLPRPRPRPYMHPRP	-0.671
RRIRARPPRLPRPRPRPCCEPRP	0.512
RRIRWRPPRLPRPRPRPTGYPRP	-0.145
RRIRNRPPRLPRPRPRPQGEPRP	-0.422
RRIRVRPPRLPRPRPRPHITPRP	-0.643
RRIRVRPPRLPRPRPRPGRIPRP	0.0466
RRIRPRPPRLPRPRPRPSEAPRP	-0.0726
RRIRKRPPRLPRPRPRPYDTPRP	-0.246
RRIRFRPPRLPRPRPRPFHSPRP	-0.0346
RRIRARPPRLPRPRPRPKNWPRP	0.465
RRIRWRPPRLPRPRPRPKKRPRP	0.426
RRIRFRPPRLPRPRPRPRQWPRP	0.39
RRIRERPPRLPRPRPRPSCIPRP	-0.455
RRIRMRPPRLPRPRPRPTCGPRP	0.942
RRIRSRPPRLPRPRPRPRAIPRP	0.134
RRIRLRPPRLPRPRPRPWKGPRP	0.0434
RRIRPRPPRLPRPRPRPALDPRP	0.628
RRIRCRPPRLPRPRPRPGCGPRP	0.545
RRIRARPPRLPRPRPRPFWRPRP	0.36
RRIRCRPPRLPRPRPRPLWIPRP	-0.166
RRIRPRPPRLPRPRPRPSETPRP	-0.182

Sequence	shrunken log2 fold change
RRIRCRPPRLPRPRPRPHRYPRP	-0.114
RRIRMRPPRLPRPRPRPNWIPRP	-0.118
RRIRERPPRLPRPRPRPTRRPRP	0.059
RRIRWRPPRLPRPRPRPMMKPRP	0.155
RRIRWRPPRLPRPRPRPKCAPRP	0.706
RRIRIRPPRLPRPRPRPYCHPRP	-0.743
RRIRLRPPRLPRPRPRPAGNPRP	0.116
RRIRYRPPRLPRPRPRPTMQPRP	-0.0804
RRIRQRPPRLPRPRPRPNWGPRP	0.105
RRIRCRPPRLPRPRPRPIYYPRP	-0.653
RRIRRRPPRLPRPRPRPEIPPRP	0.163
RRIRRRPPRLPRPRPRPNMIPRP	-0.914
RRIRIRPPRLPRPRPRPPTGPRP	0.209
RRIRPRPPRLPRPRPRPGCNPRP	-0.124
RRIRKRPPRLPRPRPRPIDYPRP	-0.0337
RRIRHRPPRLPRPRPRPIPMPRP	-0.0582
RRIRFRPPRLPRPRPRPATNPRP	-0.213
RRIRDRPPRLPRPRPRPTILPRP	0.242
RRIRERPPRLPRPRPRPFHGPRP	-0.0459
RRIRHRPPRLPRPRPRPIILPRP	-0.113
RRIRARPPRLPRPRPRPYMPPRP	-0.829
RRIRVRPPRLPRPRPRPDGWPRP	0.223
RRIRRRPPRLPRPRPRPPMHPRP	0.693
RRIRKRPPRLPRPRPRPKMPPRP	0.0535
RRIRARPPRLPRPRPRPSIQPRP	-0.119

Sequence	shrunken log2 fold change
RRIRIRPPRLPRPRPRPPDQPRP	-0.0864
RRIRRRPPRLPRPRPRPWFPPRP	-0.44
RRIRSRPPRLPRPRPRPSINPRP	-0.567
RRIRPRPPRLPRPRPRPYKMPRP	-0.605
RRIRNRPPRLPRPRPRPLFGPRP	0.0228
RRIRDRPPRLPRPRPRPDDDPRP	-0.00186
RRIRRRPPRLPRPRPRPMWVPRP	-0.135
RRIRNRPPRLPRPRPRPNVRPRP	-0.243
RRIRNRPPRLPRPRPRPFQVPRP	-0.134
RRIRWRPPRLPRPRPRPCNLPRP	-0.161
RRIRKRPPRLPRPRPRPIMLPRP	0.0564
RRIRNRPPRLPRPRPRPVLYPRP	-0.374
RRIRMRPPRLPRPRPRPPKGPRP	0.873
RRIRERPPRLPRPRPRPPVEPRP	0.268
RRIRRRPPRLPRPRPRPMMLPRP	-0.142
RRIRHRPPRLPRPRPRPHQTPRP	-0.0667
RRIRPRPPRLPRPRPRPHSDPRP	0.0137
RRIRMRPPRLPRPRPRPRTDPRP	-0.0668
RRIRVRPPRLPRPRPRPQYDPRP	-0.729
RRIRLRPPRLPRPRPRPQCSPRP	-0.127
RRIRKRPPRLPRPRPRPIQTPRP	0.0355
RRIRARPPRLPRPRPRPSGAPRP	0.38
RRIRYRPPRLPRPRPRPTWTPRP	0.0315
RRIRPRPPRLPRPRPRPFDHPRP	-0.105
RRIRKRPPRLPRPRPRPEIRPRP	0.171

Sequence	shrunken log2 fold change
RRIRGRPPRLPRPRPRPNWFPRP	0.469
RRIRCRPPRLPRPRPRPLCQPRP	-0.949
RRIRDRPPRLPRPRPRPEDYPRP	0.0219
RRIRSRPPRLPRPRPRPTYNPRP	-0.765
RRIRKRPPRLPRPRPRPRSQPRP	0.051
RRIRERPPRLPRPRPRPFKQPRP	-0.0138
RRIRMRPPRLPRPRPRPYQEPRP	-0.0194
RRIRVRPPRLPRPRPRPHVVPRP	-0.479
RRIRNRPPRLPRPRPRPHPWPRP	0.0589
RRIRLRPPRLPRPRPRPNRPPRP	-0.0609
RRIRQRPPRLPRPRPRPEMWPRP	0.483
RRIRIRPPRLPRPRPRPPYVPRP	-0.121
RRIRGRPPRLPRPRPRPQRNPRP	0.473
RRIRGRPPRLPRPRPRPMIMPRP	-0.0509
RRIRFRPPRLPRPRPRPQVAPRP	0.147
RRIRKRPPRLPRPRPRPKLCPRP	0.515
RRIRCRPPRLPRPRPRPITHPRP	-0.158
RRIRARPPRLPRPRPRPRRPPRP	0.494
RRIRTRPPRLPRPRPRPTKPPRP	0.0402
RRIRRRPPRLPRPRPRPAGEPRP	0.75
RRIRLRPPRLPRPRPRPWGCPRP	0.0644
RRIRTRPPRLPRPRPRPWAHPRP	-0.0917
RRIRERPPRLPRPRPRPNPNPRP	-0.365
RRIRFRPPRLPRPRPRPGKMPRP	-0.0519
RRIRVRPPRLPRPRPRPEDRPRP	0.0837

Sequence	shrunken log2 fold change
RRIRVRPPRLPRPRPRPQPTPRP	0.408
RRIRIRPPRLPRPRPRPFVNPRP	-0.488
RRIRKRPPRLPRPRPRPVWTPRP	0.485
RRIRARPPRLPRPRPRPFSEPRP	-0.122
RRIRMRPPRLPRPRPRPWSQPRP	-0.189
RRIRPRPPRLPRPRPRPYLKPRP	-0.259
RRIRLRPPRLPRPRPRPHIKPRP	-0.528
RRIRNRPPRLPRPRPRPTFFPRP	-0.139
RRIRSRPPRLPRPRPRPRACPRP	0.403
RRIRWRPPRLPRPRPRPMATPRP	0.26
RRIRRRPPRLPRPRPRPCYQPRP	-0.16
RRIRNRPPRLPRPRPRPTFNPRP	-0.506
RRIRERPPRLPRPRPRPDRRPRP	0.0868
RRIRNRPPRLPRPRPRPMPRPRP	0.11
RRIRIRPPRLPRPRPRPIRGPRP	-0.0199
RRIRDRPPRLPRPRPRPMQNPRP	0.269
RRIRNRPPRLPRPRPRPHWSPRP	-0.285
RRIRVRPPRLPRPRPRPHGSPRP	-0.156
RRIRHRPPRLPRPRPRPLNHPRP	-0.785
RRIRWRPPRLPRPRPRPFPIPRP	-0.169
RRIRFRPPRLPRPRPRPTVGPRP	-0.142
RRIRYRPPRLPRPRPRPTTNPRP	-0.837
RRIRKRPPRLPRPRPRPHERPRP	0.231
RRIRTRPPRLPRPRPRPTPHPRP	0.283
RRIRVRPPRLPRPRPRPKVDPRP	0.0982

Sequence	shrunken log2 fold change
RRIRIRPPRLPRPRPRPQWLPRP	-0.0168
RRIRNRPPRLPRPRPRPTFPPRP	-0.112
RRIRSRPPRLPRPRPRPEMNPRP	0.0588
RRIRARPPRLPRPRPRPNGKPRP	0.3
RRIRLRPPRLPRPRPRPKPDPRP	0.315
RRIRWRPPRLPRPRPRPPNEPRP	0.424
RRIRRRPPRLPRPRPRPQPGPRP	0.264
RRIRIRPPRLPRPRPRPGHFPRP	-0.0592
RRIRQRPPRLPRPRPRPLSKPRP	-0.194
RRIRSRPPRLPRPRPRPTNGPRP	0.0899
RRIRIRPPRLPRPRPRPYDDPRP	-0.0134
RRIRWRPPRLPRPRPRPQRAPRP	0.66
RRIRKRPPRLPRPRPRPSLCPRP	-0.239
RRIRSRPPRLPRPRPRPKETPRP	-0.0164
RRIRRRPPRLPRPRPRPKYHPRP	-0.153
RRIRQRPPRLPRPRPRPMDYPRP	-0.0062
RRIRPRPPRLPRPRPRPLTGPRP	0.019
RRIRHRPPRLPRPRPRPWWCPRP	-0.034
RRIRQRPPRLPRPRPRPRAKPRP	0.0777
RRIRMRPPRLPRPRPRPIIIPRP	-0.166
RRIRIRPPRLPRPRPRPCQCPRP	-1.17
RRIRMRPPRLPRPRPRPLEAPRP	2.46
RRIRYRPPRLPRPRPRPRQCPRP	-0.0146
RRIRDRPPRLPRPRPRPPELPRP	0.107
RRIRARPPRLPRPRPRPRWAPRP	1.05
